Measurements taken from patent US20130289100 (The Research Foundation for the State University of New York, published 2013).

Experiments:
Conditions in all cases: chain copies: 4 (inferred)
[1] = target: T1, GluA2Qflip AMPA receptor subunit (Rattus norvegicus, UniProt P19491-2 P19491-2:22-883); assay: competition; open-channel conformation; homologous competition with radiolabeled AF44
[2] = target: T1, GluA2Qflip AMPA receptor subunit; assay: competition; unliganded closed-channel conformation; homologous competition with radiolabeled AF44
[3] = target: T1, GluA2Qflip AMPA receptor subunit; assay: competition; open-channel conformation; homologous competition with radiolabeled AF42
[4] = target: T1, GluA2Qflip AMPA receptor subunit; assay: competition; closed-channel conformation; homologous competition with radiolabeled AF42

T1 sequence (P19491 other isoform, or with tags, fused parts or gaps): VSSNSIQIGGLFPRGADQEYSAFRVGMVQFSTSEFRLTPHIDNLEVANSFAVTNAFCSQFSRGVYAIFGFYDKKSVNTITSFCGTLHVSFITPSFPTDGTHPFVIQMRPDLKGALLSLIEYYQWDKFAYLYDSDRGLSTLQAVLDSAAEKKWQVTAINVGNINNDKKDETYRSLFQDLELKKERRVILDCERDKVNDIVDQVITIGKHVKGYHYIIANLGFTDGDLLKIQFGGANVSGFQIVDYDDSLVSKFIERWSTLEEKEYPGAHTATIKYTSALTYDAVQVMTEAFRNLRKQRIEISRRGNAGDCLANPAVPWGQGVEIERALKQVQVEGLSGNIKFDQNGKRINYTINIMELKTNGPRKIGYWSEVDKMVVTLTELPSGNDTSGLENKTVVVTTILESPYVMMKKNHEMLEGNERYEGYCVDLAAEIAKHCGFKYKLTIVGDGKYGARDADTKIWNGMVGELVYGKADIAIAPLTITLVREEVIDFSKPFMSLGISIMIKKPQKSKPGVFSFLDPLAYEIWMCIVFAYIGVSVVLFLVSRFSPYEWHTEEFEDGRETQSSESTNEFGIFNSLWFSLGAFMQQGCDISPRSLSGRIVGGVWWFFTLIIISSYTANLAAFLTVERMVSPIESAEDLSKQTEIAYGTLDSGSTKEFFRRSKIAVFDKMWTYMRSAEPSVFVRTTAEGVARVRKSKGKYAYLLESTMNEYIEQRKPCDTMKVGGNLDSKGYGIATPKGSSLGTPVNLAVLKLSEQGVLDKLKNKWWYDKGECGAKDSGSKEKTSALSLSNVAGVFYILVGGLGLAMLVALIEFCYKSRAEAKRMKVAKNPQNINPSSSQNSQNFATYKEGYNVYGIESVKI

| Binder | Kd [1] [nM] | Kd [2] [nM] | Kd [3] [nM] | Kd [4] [nM] |
| --- | --- | --- | --- | --- |
| GGGAGAAUUCAACUGCCACGGAUAAUAGCCAAUACUACAACCGU (ssRNA) [AF44 (A22)] | 48 | 44 | – | – |
| GGGAACGGUGCCAGUCCGAAACGGAUCGUUAGAGCAUCAGUA (ssRNA) [AF42] | – | – | 44 | 57 |
